Experiments:
[1] = tested on: DCAF12 mutants K91A, K108A, R203A, R256A, R344A; assay: NanoBRET with full-length proteins, DCAF12 mutants; format: cell-based, human; details: HEK293T cells; FL protein; all DCAF12 mutations vs WT
Source text: Fig. 2. Conserved arginine and lysine residues near DCAF12 central channel participate in MAGEA3 binding in cells. A) DCAF12 electrostatic surface potential analysis showing negatively and positively charged residues colored in red and blue, respectively. On the left, DDB1 contacting surface of DCAF12. On the right, substrate contacting surface with positively charged residues—Arg203, Arg256, and Arg344—highlighted as sticks. Electrostatic potential is shown on a scale of −10 (red) kT/e to 10 (blue). B) Conservation analysis of DCAF12 showing high conservation of the same positively charged residues (represented as sticks) among homologous sequences. Residues were colored on a scale from variable/low conservation (dark teal) to high conservation (magenta). […]
(§1) HEK293T cells were plated in 96-well plates (2 × 10^4/well) and 4 h later transfected with 0.03 µg/well N-terminally HT-tagged DCAF12 (WT or mutants) or HT alone and 0.001 µg/well N-terminally NL-tagged CCT5 and MAGEA3 (FL or -EE degrons) using X-tremeGene HP transfection reagent (Roche), following the manufacturer's instructions. […] Four hours later, 10 µL of NanoBRET Nano-Glo Substrate solution (8 µL/mL Nano-Glo substrate (Promega) diluted in DMEM/F12 no phenol red, supplemented with 4% FBS, penicillin 100 U/mL, and streptomycin 100 µg/mL) was added, and the signal was read. […]

[2] = tested on: DCAF12; assay: NanoBRET with full-length proteins, DCAF12; format: cell-based, human; details: HEK293T cells; FL protein
Source text: To further investigate the DCAF12 interaction with MAGEA3 and CCT5 in cells, we developed a NanoBRET assay, which measures the interaction of […] FL MEAGEA3/CCT5 or C-terminal peptide containing degron sequences ([…]/[…], respectively). When donor and acceptor proteins are in close proximity, the donor excites the acceptor, which then emits fluorescence, allowing for direct measurement of protein–protein interaction in cells.
as §1, with “read. Donor emission at 450 nm (filter: 450 nm/BP 80 nm) and acceptor emission at 618 nm (filter: 610 nm/LP) were measured within 10 min of substrate addition using CLARIOstar microplate reader (Mandel).” for “read.”

B1: MAGEA3-FL: full-length melanoma-associated antigen 3 protein (protein)
chain: MPLEQRSQHCKPEEGLEARGEALGLVGAQAPATEEQEAASSSSTLVEVTLGEVPAAESPDPPQSPQGASSLPTTMNYPLWSQSYEDSSNQEEEGPSTFPDLESEFQAALSRKVAELVHFLLLKYRAREPVTKAEMLGSVVGNWQYFFPVIFSKASSSLQLVFGIELMEVDPIGHLYIFATCLGLSYDGLLGDNQIMPKAGLLIIVLAIIAREGDCAPEEKIWEELSVLEVFEGREDSILGDPKKLLTQHFVQENYLEYRQVPGSDPACYEFLWGPRALVETSYVKVLHHMVKISGGPHISYPPLHEWVLREGEE
modifications: left off: NanoLuc, N-terminal, kept
notes: full-length melanoma-associated antigen 3 protein
decrease of DCAF12 interaction by mutations, NanoBRET [1]: over 50% | BRET signal over negative control [2]: 22 fold

— paper PMC11044963, “Probing the CRL4^DCAF12 interactions with MAGEA3 and CCT5 di-Glu C-terminal degrons” (PNAS Nexus, 2024)
